The test system of series [1] is ALK on the surface of NB1 cells. Put plainly: KD determination by flow cytometry on NB1 cells. Type of series: binding. As to conditions: NB1 (human) cells, FACS, mean. The method, then: FIG. 3 depicts the apparent affinities (KD) of ALK antibodies for ALK expression on the surface of NB1 cells. KD was determined by flow cytometry. Titration of each antibody on NB1 cells for 2-4 hours at 4° C. was followed by incubation with a fluorescently-labeled secondary antibody. The normalized mean fluorescent intensity […] shown as “% Max binding” was plotted as a function of antibody concentration.
Flow cytometry was utilized to measure the affinity at steady state (KD) with which different ALK antibodies bind to ALK on the surface of NB1 cells (FIG. 3). Titration of each antibody on NB1 cells for 2-4 hours at 4° C. was followed by incubation with a fluorescently-labeled secondary antibody. The normalized mean fluorescent intensity (MFI) shown as “% Max binding” was plotted as a function of antibody concentration. The data were fit to a one site binding isotherm using GraphPad Prism, from which affinity values were derived.
(§1) Amino acid residues that differ between rat ALK and mouse ALK are boxed. KD values for both NB1 (human) cells and Neuro2a (mouse) cells were also determined.
A general note: In flow cytometry, cells or beads pass a laser one at a time.

Series [2] addresses human ALK (hALK, purified ALK protein) (Homo sapiens, UniProt Q9UM73). Briefly: Monovalent affinity of humanized antibodies, BLitz System, human ALK. To be noted: for Kd: BLitz, purified ALK protein at 70 μg/mL, single binding site fit, antibody by plate position of Table 19; for potency estimated from few doses: single dose kinetics. It counts as binding. The method, then:
The humanized ALK antibodies designed in Example 1 were tested for monovalent affinity, wherein the kinetic data are fit to a single binding site equation to obtain relative affinity values.
(§2) Kinetic measurements of the monovalent affinity of the 96 humanized ALK antibody variants (Ab351-Ab446) were collected. Affinity ranking was performed using a BLitz® System (ForteBio, Menlo Park, Calif.). Humanized anti-ALK antibodies were immobilized at 0.5 mg/mL using Protein A tips. Once baseline stability was ensured, purified ALK proteins at 70 μg/mL were added. The resulting kinetic data were fit to a single binding site equation, from which the quoted monovalent KD values were derived.
as §1

Series [3] addresses T1, cell surface mALK on Neuro2a cells (Mus musculus, UniProt P97793).
T1 construct: Neuro-2a cells that express low levels of endogenous murine ALK; endogenous in cells; host or cells: Neuro-2a (Neuro2a) mouse neuroblastoma cells
Briefly: KD of humanized antibodies on Neuro2a (mouse) cells. As to conditions: FACS, mean. It counts as binding. The procedure: as §1

The next series has as its target T2, mouse ALK (mALK) (Mus musculus, UniProt P97793).
T2 construct: mouse ALK (mALK)
Put plainly: Monovalent affinity of humanized antibodies, BLitz System, mouse ALK. Type of series: binding. As to conditions: single dose kinetics. The procedure: as §2, §1

The target in series [4] is murine ALK (purified mouse ALK antigen) (Mus musculus, UniProt P97793). Briefly: Mouse ALK cross-reactivity, solid-state ELISA. It counts as binding. The arrangement: key: − none; + weak; ++ moderate; +++ strong. To be noted: cross-reactivity with murine ALK. The procedure:
Purified mAbs were evaluated for their ability to bind murine ALK by solid-state ELISA, or flow cytometry on Neuro-2a cells that express low levels of endogenous murine ALK. […]
(In general: An ELISA detects its analyte on a solid surface through an enzyme-linked reagent.)

Series [5] deals with C-terminal region of human ALK ECD (T637-S1038) (Homo sapiens, UniProt Q9UM73). Put plainly: Competitive binding assay (epitope binning) by flow cytometry. As to conditions: antibodies to the C-terminal region. The method, then: Antibodies that bind to the C-terminal region of human ALK ECD (T637-S1038) were further characterized using a competitive binding assay. A pairwise matrix approach was used whereby each antibody was fluorescently labeled and tested for its ability to bind to ALK-expressing cells pre-incubated with an unlabeled antibody. The ability of both antibodies to bind the C-terminal domain simultaneously was tested via flow cytometry. If both antibodies bound simultaneously, they were put into different bins and considered to belong to a separate epitope class.

Series [6] has as its system ALK (basal phosphorylation in NB1 cells). Briefly: Western blot of ALK phosphorylation in NB1 cells. It counts as cell-based, human. To be noted: for ALK phosphorylation: effect in words. The procedure: Lysed cells were subjected to SDS-PAGE, transferred to nitrocellulose and immunoblotted with antibodies against total, and phospho-specific ALK, AKT, and MAPK. FIG. 4B depicts an ELISA of NB1 cells grown in media with reduced serum and treated with 30-100 nM of each antibody for 1-2 hours. Cell lysates were incubated on ELISA plates with an anti-ALK antibody, followed by incubation with a pan phosphotyrosine antibody coupled to HRP.
Cell lysates were subjected to SDS-PAGE and transferred to nitrocellulose. Immunoblotting was performed with antibodies against total, and phospho-specific ALK, AKT, and MAPK (purchased from Cell Signaling and utilized per manufacturer's instructions). HRP (horse radish peroxidase)-conjugated secondary antibodies (Thermo Scientific, Waltham, Mass.) were used along with Supersignal West Pico Chemiluminescent Substrate (Thermo Scientific, Waltham, Mass.) to image blots.
Anti-ALK monoclonal antibodies generated in Example 1 were evaluated via Western blotting for their ability to activate or inhibit basal levels of ALK phosphorylation in NB1 cells (FIG. 4A). A subset of ALK antibodies stimulated ALK tyrosine phosphorylation and a different subset of antibodies inhibited basal levels of ALK phosphorylation. See also Table 18, below. […] That is, ALK antibodies that stimulated ALK tyrosine phosphorylation increased MAPK and AKT phosphorylation, whereas ALK antibodies that inhibited ALK tyrosine phosphorylation decreased basal levels of MAPK and AKT phosphorylation (FIG. 4A). Similar results were obtained in ELISA-based ALK phosphorylation assays from lysates of NB1 cells treated with ALK antibodies (FIG. 4B).
(In general: A western blot detects proteins with antibodies after separation by electrophoresis.)

Series [7] deals with ALK (total protein levels in NB1 cells). Put plainly: ALK turnover (total protein levels) by Western blot, 24 hour treatment of NB1 cells. The arrangement: key: − none; + weak; ++ moderate; +++ strong. It counts as cell-based, human. From the text:
FIG. 5 depicts a Western blot of a panel of ALK antibodies.
See also Table 18, below.

The test system of another series is NB1 cells. Briefly: Crizotinib titration and co-titration with ALK antibodies, killing of NB1 cells. It counts as cell-based, human.

These results are taken from US11091559B2, “Anti-ALK antibodies and methods for use thereof” (Celldex Therapeutics, Inc., priority 2015, dated 2021).

Usually Kd stands for the equilibrium constant for the complex coming apart.

Positions count from the first letter of the chain named.

human ALK (hALK, purified ALK protein), sequence (Q9UM73 with tags, fused parts or gaps): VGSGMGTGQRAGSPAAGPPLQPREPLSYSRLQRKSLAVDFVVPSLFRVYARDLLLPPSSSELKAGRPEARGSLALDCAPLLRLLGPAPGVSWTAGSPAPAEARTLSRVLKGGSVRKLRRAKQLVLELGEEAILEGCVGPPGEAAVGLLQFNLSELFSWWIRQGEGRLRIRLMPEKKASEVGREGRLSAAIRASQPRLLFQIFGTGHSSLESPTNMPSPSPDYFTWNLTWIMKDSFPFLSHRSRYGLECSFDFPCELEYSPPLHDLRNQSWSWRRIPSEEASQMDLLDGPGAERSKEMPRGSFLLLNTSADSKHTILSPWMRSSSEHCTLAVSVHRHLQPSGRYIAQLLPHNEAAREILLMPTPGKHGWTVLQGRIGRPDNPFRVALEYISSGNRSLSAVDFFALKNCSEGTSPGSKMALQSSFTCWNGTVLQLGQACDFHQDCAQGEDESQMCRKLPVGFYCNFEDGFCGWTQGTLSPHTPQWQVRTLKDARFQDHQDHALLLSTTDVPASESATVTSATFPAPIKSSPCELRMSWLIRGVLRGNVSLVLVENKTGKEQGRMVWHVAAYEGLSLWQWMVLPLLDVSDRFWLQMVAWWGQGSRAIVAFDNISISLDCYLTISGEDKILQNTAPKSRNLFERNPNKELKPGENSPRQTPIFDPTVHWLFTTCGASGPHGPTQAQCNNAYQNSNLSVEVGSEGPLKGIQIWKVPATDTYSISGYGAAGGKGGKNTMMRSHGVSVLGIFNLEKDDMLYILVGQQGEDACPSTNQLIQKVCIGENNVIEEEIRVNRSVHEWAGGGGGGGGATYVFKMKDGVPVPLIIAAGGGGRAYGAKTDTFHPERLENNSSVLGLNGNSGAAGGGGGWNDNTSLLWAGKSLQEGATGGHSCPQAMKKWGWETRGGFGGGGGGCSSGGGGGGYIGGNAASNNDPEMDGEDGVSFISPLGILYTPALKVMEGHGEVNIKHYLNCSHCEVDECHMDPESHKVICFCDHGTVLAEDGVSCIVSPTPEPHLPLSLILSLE
T1 sequence (P97793 19-1621): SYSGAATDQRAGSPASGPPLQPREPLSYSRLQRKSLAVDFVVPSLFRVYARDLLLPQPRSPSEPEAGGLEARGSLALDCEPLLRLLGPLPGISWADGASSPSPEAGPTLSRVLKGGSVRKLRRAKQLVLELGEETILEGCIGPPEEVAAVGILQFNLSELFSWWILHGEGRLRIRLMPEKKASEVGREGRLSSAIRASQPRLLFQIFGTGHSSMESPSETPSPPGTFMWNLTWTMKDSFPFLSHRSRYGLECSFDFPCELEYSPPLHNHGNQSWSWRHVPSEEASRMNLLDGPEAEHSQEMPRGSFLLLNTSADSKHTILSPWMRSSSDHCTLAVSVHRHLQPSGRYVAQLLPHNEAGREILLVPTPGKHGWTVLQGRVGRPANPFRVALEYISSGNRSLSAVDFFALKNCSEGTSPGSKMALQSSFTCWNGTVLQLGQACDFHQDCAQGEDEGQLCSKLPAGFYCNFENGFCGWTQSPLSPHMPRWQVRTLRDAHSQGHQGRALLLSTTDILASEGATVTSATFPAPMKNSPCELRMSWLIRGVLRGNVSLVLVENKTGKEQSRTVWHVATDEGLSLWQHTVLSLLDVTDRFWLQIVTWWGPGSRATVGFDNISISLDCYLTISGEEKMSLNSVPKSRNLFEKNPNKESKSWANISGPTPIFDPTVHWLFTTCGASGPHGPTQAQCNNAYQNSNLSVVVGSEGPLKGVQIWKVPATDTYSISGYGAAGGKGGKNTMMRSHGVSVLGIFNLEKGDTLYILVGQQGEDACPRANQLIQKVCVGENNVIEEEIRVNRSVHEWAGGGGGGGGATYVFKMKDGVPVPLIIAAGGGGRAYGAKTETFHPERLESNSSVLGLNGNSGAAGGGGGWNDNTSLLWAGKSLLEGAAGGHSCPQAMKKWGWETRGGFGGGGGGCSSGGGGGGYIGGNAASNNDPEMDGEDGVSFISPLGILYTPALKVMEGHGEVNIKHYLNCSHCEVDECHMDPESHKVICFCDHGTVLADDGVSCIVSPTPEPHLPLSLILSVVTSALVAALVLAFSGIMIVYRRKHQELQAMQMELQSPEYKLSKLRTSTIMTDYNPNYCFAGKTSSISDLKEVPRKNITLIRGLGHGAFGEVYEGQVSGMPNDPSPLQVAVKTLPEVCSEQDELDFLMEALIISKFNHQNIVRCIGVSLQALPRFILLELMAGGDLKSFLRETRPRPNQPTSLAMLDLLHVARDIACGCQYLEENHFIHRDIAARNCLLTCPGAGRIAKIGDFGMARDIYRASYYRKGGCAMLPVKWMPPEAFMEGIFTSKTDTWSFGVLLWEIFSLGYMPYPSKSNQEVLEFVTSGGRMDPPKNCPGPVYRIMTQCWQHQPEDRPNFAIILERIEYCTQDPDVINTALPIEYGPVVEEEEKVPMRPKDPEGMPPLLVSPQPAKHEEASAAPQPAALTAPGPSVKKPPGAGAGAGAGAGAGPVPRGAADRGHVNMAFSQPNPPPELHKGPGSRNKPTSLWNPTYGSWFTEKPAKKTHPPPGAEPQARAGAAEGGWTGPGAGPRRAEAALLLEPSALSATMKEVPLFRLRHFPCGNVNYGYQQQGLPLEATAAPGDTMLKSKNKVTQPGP
murine ALK (purified mouse ALK antigen), sequence (P97793 19-1042 limits assumed): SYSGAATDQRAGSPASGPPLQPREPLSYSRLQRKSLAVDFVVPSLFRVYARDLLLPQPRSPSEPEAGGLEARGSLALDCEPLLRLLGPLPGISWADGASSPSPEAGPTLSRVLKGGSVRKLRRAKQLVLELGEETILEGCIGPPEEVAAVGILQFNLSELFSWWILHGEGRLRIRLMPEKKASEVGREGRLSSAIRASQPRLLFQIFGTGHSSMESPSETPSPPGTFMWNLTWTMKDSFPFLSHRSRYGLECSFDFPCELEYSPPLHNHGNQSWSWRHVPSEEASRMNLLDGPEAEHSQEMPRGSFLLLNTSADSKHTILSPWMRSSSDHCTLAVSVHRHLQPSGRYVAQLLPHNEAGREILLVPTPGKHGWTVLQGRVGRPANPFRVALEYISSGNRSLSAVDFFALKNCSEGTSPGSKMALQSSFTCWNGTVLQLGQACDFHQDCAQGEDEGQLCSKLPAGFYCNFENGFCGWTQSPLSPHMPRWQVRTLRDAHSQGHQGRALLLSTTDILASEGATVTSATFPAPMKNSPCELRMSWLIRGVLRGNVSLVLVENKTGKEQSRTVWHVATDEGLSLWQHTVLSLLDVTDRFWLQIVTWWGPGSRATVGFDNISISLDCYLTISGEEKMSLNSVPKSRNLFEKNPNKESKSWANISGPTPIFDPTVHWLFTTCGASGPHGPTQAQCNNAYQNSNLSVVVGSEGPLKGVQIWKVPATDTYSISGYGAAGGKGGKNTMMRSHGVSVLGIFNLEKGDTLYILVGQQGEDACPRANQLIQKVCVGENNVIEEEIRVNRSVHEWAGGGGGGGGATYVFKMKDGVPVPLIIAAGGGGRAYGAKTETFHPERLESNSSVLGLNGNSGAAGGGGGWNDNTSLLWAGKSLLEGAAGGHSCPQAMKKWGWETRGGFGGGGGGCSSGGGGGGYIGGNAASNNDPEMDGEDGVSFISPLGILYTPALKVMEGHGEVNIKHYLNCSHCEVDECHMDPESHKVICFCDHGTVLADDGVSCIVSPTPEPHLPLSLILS
T2 sequence (P97793 19-1042): as the sequence (P97793 19-1042 limits assumed) above

B1: Ab400: humanized anti-ALK antibody; VL SEQ ID NO: 425, VH SEQ ID NO: 430 (antibody, V domains shown)
VH: EVQLVQSGPEVKKPGTSVKLSCKASGYTFTSYWMHWVRQARGQRLEWIGYIKPSSGYTKYNQKFKDRATLTADKSTSTAYMELSSLRSEDTAVYYCARDYYGSSSWFAYWGQGTLVTVSS
VL: EIVMTQSQATMSTSVGERATLSCKASQNVGTNVAWYQQKPGQSPKALIYSASYRYSGVPARFSGSGSGTDFTLTISSVEPEDFAVYYCQQYNSYPYMYTFGQGTKLEIK
modifications: VH domain - Ab352; VL domain - Ab399
As to B1, the Kd in [1] came out at 1.3 nM; in [2], 81.5 nM; in [3] it was 7.4 nM. In addition, the potency estimated from few doses in series [2] is 59 nM.

B2: Ab352: humanized anti-ALK antibody; VL SEQ ID NO: 421, VH SEQ ID NO: 430 (antibody, V domains shown)
VH: B1 VH
VL: EIVMTQSPAFLSVTPGEKVTITCKASQNVGTNVAWYQQKPDQAPKALIYSASYRYSGVPSRFSGSGSGTDFTLTISSLEAEDAATYYCQQYNSYPYMYTFGQGTKLEIK
modifications: VH domain - Ab352; VL domain - Ab351
With B2, the Kd in series [1] amounted to 1.4 nM; in [3], 7.7 nM.

B3: Ab402: humanized anti-ALK antibody; VL SEQ ID NO: 425, VH SEQ ID NO: 432 (antibody, V domains shown)
VH: B1 VH with P9A, N61A, K65Q, D66E, A68V
VL: B1 VL
modifications: VH domain - Ab354; VL domain - Ab399
B3: the Kd in series [1] came out at 1.5 nM; in series [2] it was 87.6 nM; in [3], 2.8 nM. Further, the potency estimated from few doses in series [2] is 71 nM; with mouse ALK (mALK), 147 nM.

B4: Ab403: humanized anti-ALK antibody; VL SEQ ID NO: 425, VH SEQ ID NO: 433 (antibody, V domains shown)
VH: B1 VH with E1Q, P9A, K12A, T16A, R38K, R41P, R44G, R67K, S84R, E89D
VL: B1 VL
modifications: VH domain - Ab355; VL domain - Ab399
On to B4, for which the results for the Kd in [1], in [2] and in [3] were 0.73 nM, 94.2 nM and 4.15 nM, respectively. The potency estimated from few doses in series [2] was 80 nM; with mouse ALK (mALK), 120 nM.

B5: Ab327: anti-ALK monoclonal antibody; VL SEQ ID NO: 409, VH SEQ ID NO: 410 (antibody, V domains shown)
VH: DVKLVESGEGLVKPGGSLKLSCAASGFTFSSYAMSWVRQTPEKRLEWVTYISSGGDYIYYADTVKGRFTISRDNARNTLYLQMSSLKSEDTAMYYCTRERIWLRRFFDVWGTGTTVTVSS
VL: DIVMTQSQKFMSTSVGDRVSITCKASQNVGTAVAWYQLKPGQSPKLLIYSASNRFTGVPDRFTGSGSGTDFTLTISNMQSEDLADYFCQQYSSYPLTFGSGTKLEIKR
modifications: VH domain - Ab327; VL domain - Ab327
In the case of B5, in series [4], the “mouse ALK binding” value is reported as “+++”. For the same molecule, the “Bin/Domain (bin)” value in [5] turned out to be 2. Further, in series [6], the “effect on ALK activity (ALK inhibitory or ALK agonistic antibody)” value is “inhibitory” and the ALK phosphorylation result was “inhibitor”. Also, in [7], the ALK turnover result is recorded as “++”. Besides, the “effect on the anti-proliferative effect of crizotinib” value in the series on NB1 cells (co-titration of crizotinib with the antibody) is listed as “enhanced”.

B6: Ab323: anti-ALK monoclonal antibody; VL SEQ ID NO: 401, VH SEQ ID NO: 402 (antibody, V domains shown)
VH: QVQLQQSGAELVKPGASVKISCKTSGYTFSNYWMNWVKQRPGKGLEWIGQIFPGDADANYNGKFKGKATLTADKSSSAAFMQLSSLTSEDSAVYFCARFSYDGAFAYWGQGTLVTVS
VL: DIVMTQSHKFMSTSVGDRVSITCKASQDVSTAVAWYQQKPGQSPKPLIYWASTRHTGVPDRFTGSGSGTDYTLTISSVQTEDLALYYCQQHYSTPRTFGGGTKLEIKR
modifications: VH domain - Ab323; VL domain - Ab323
B6: the “mouse ALK binding” value in series [4] is given as “+++”. The “Bin/Domain (bin)” value in [5] is recorded as 1. In [6], the “effect on ALK activity (ALK inhibitory or ALK agonistic antibody)” value is “agonistic” and the ALK phosphorylation entry is recorded as “weak agonist”. Also, the ALK turnover entry in series [7] is listed as “++”. For the same molecule, the “effect on NB1 cell death caused by crizotinib” value in the series on NB1 cells (constant amount of antibody added to crizotinib titration) is recorded as “partially rescued”.
